# What was measured:
# [1] = Preparation of single peptide injection preparations using sodium carbonate solution (Example 1); format: physicochemical; conditions: for Whether injection preparation could be prepared (in words): 5 mg to 20 mg peptide in 1 ml injection solvent containing sodium carbonate; for Peptide concentration at which injection preparation could be prepared, Example 1 (Na2CO3): 41 mg sodium carbonate decahydrate in 1 ml injection solvent, class symbol; for pH of injection preparation, Example 1 (Na2CO3): injection solvent containing sodium carbonate
# Description: (§1) 41 mg of sodium carbonate decahydrate (Na2CO3.10H2O) was dissolved in 1 ml of an injection solvent to obtain an injection solvent containing sodium carbonate. In order to prepare formulations of the each peptide that was not dissolved in an injection solvent in Comparative Example 1, Peptides 1, 2, 4, 7, and 10 were separately added to 1 ml of injection solvents containing sodium carbonate.
# In the case of Peptide 1, it was confirmed that the injection preparation could be obtained with the addition of 9 mg of peptide at the maximum. All the obtained injection preparations had pH levels within adequate range for injection (Table 2).
# [2] = Preparation of single peptide injection preparations using arginine solution (Example 2); format: physicochemical; conditions: for Whether injection preparation could be prepared (in words): 5 mg to 20 mg peptide in 1 ml injection solvent containing arginine; for Peptide concentration at which injection preparation could be prepared, Example 2 (Arg): 40 mg L-arginine in 1 ml injection solvent, class symbol; for pH of injection preparation, Example 2 (Arg): injection solvent containing arginine
# Description: as §1, with “40” for “41”, “L-arginine” for “sodium carbonate decahydrate (Na2CO3.10H2O)”, “arginine.” for “sodium carbonate.”, “of” for “of the”
# In the case of Peptide 1, it was confirmed that the injection preparation could be obtained with the addition of 6 mg of peptide at the maximum. All the obtained injection preparations had pH levels within adequate range for injection (Table 2).
# [3] = Preparation of injection preparations using sodium carbonate/arginine solution (Example 3); format: physicochemical; conditions: for Peptide concentration at which injection preparation could be prepared, Example 3 (Na2CO3/Arg): 41 mg sodium carbonate decahydrate and 40 mg L-arginine in 1 ml injection solvent; for pH of injection preparation, Example 3 (Na2CO3/Arg): injection solvent containing sodium carbonate and arginine
# Description: 41 mg of sodium carbonate decahydrate and 40 mg of L-arginine were dissolved in 1 ml of an injection solvent to obtain an injection solvent containing sodium carbonate and arginine.
# In the case of Peptide 3, it was confirmed that the injection preparation could be obtained with the addition of 15 mg of peptide at the maximum. All the obtained injection preparations had pH levels within adequate range for injection (Table 2).
# [4] = Combination peptide injection preparation using arginine solution (Example 4); format: physicochemical; design: key to Dissolution on successive addition, Example 4-1 (Arg) (1 mg each) / Dissolution on successive addition, Example 4-2 (Arg) (2 mg each): ◯: Dissolved; X: White Turbid; conditions: for Dissolution on successive addition, Example 4-1 (Arg) (1 mg each): 1 mg each peptide added one after another to 1 ml arginine solvent
# Description: In order to prepare an injection preparation containing combination of the peptides shown in Table 1, the 10 types of peptides shown in Table 1 were added in an amount of 1 mg each to 1 ml of the injection solvent containing arginine as used in Example 2. The entire amount of one peptide was dissolved upon addition thereof to obtain a colorless and clear solution, and another peptide was then added thereto.
# Subsequently, preparation of another injection preparation containing combination of the peptides was attempted in the same manner as described above, except that the amount of each peptide added was changed to 2 mg. […] Thus, no other peptides were added thereafter.
# [5] = Combination peptide injection preparation using sodium carbonate solution (Example 5); format: physicochemical; design: key to Dissolution on successive addition, Example 5 (Na2CO3) (2 mg each) / Dissolution of further 2 mg of Peptide 2, Example 5 (Na2CO3): ◯: Dissolved; X: White Turbid; conditions: 2 mg each peptide added one after another to 1 ml sodium carbonate solvent
# Description: (§2) In order to prepare an injection preparation containing combination of the peptides shown in Table 1, the 10 types of peptides shown in Table 1 were added in an amount of 2 mg each to 1 ml of the injection solvent containing sodium carbonate as used in Example 1. The addition of each peptide was conducted in the same manner as in Example 4.
# [6] = Combination peptide injection preparation using sodium carbonate/arginine solution (Example 6); format: physicochemical; design: key to Dissolution on successive addition, Example 6 (Na2CO3/Arg) (2 mg each) / Dissolution of further 2 mg of Peptide 2, Example 6 (Na2CO3/Arg): ◯: Dissolved; X: White Turbid; conditions: 2 mg each peptide added one after another to 1 ml sodium carbonate/arginine solvent
# Description: as §2, with “carbonate and arginine” for “carbonate”, “3.” for “1.”
# [7] = Preparation of single peptide injection preparations using injection solvent (Comparative Example 1); conditions: for Whether injection preparation could be prepared (in words): 2 mg to 20 mg peptide in 1 ml injection solvent; for Peptide concentration at which injection preparation could be prepared, Comparative Example 1 (injection solvent): injection solvent (water), room temperature
# Description: Pharmaceutical water defined by the Japanese Pharmacopoeia was used as an injection solvent.
# In order to prepare formulations containing one of the peptides shown in Table 1, each of the peptides shown in Table 1 were added to 1 ml of an injection solvent. The resultants were agitated at room temperature so as to dissolve the entire amounts of the peptides added, and thereby colorless and clear solutions of each peptide were obtained. Thereafter, the peptide solutions were sterilized via filtration (with the use of a 0.22-μm filter) to obtain injection preparations.
# The amounts of peptides added varied within the range of 2 mg to 20 mg, and injection preparations were prepared at each concentration. […] For these peptides, peptide concentrations that enable preparation of injection preparations were investigated.
# [8] = Stability of lyophilized formulation, peptide content in the vial by HPLC (Example 7); format: physicochemical; conditions: 25 degrees C., humidity 60%, relative to comparative solution peak area = 100%
# Description: 107.7 g of L-arginine and 110.4 g of sodium carbonate hydrate were dissolved in 5,500 ml of an injection solvent. Peptide 1, Peptide 2, Peptide 3, and Peptide 4 were dissolved therein in amounts of 6.2 g, 7.5 g, 8.7 g, and 8.0 g, respectively. Thereafter, the total amount of the solution was adjusted to 7,000 ml with the addition of an injection solvent, and a combination peptide solution was obtained. […] Following lyophilization, the vial was fully stoppered and the aluminum cap seaming was conducted. Thus, a lyophilized formulation was produced.
# Further, the results shown above were subjected to regression analysis, so as to predict stability 24 months later.
Sequence,"Peptide concentration at which injection preparation could be prepared, Example 3 (Na2CO3/Arg) ([3]; class symbol)","pH of injection preparation, Example 3 (Na2CO3/Arg) [3]","Dissolution on successive addition, Example 4-1 (Arg) (1 mg each) [4]","Dissolution on successive addition, Example 5 (Na2CO3) (2 mg each) [5]","Dissolution on successive addition, Example 6 (Na2CO3/Arg) (2 mg each) [6]",Whether injection preparation could be prepared (in words) [7],"Peptide concentration at which injection preparation could be prepared, Comparative Example 1 (injection solvent) ([7]; class symbol)",other results
DYLNEWGSRF (T cell epitope) [Peptide 10],⊚ (20 mg/ml or more),10.14,◯,◯,◯,not possible to prepare the injection preparations regardless of the amounts of peptides added,X (0.08 mg/ml or less),"Whether injection preparation could be prepared (in words) [1]: possible to prepare the injection preparations regardless of the amounts of peptides added; Peptide concentration at which injection preparation could be prepared, Example 1 (Na2CO3) [1]: ⊚ (20 mg/ml or more); pH of injection preparation, Example 1 (Na2CO3) [1]: 9.35; Whether injection preparation could be prepared (in words) [2]: possible to prepare the injection preparations regardless of the amounts of peptides added; Peptide concentration at which injection preparation could be prepared, Example 2 (Arg) [2]: ⊚ (20 mg/ml or more); pH of injection preparation, Example 2 (Arg) [2]: 9.87"
EYCPGGNLP (EYCPGGNLF; T cell epitope) [Peptide 8],⊚ (20 mg/ml or more),9.80,◯,◯,◯,possible to prepare the injection preparations regardless of the amounts of peptides added,⊚ (20 mg/ml or more),–
KVYLRVRPLL (T cell epitope) [Peptide 3],–,–,◯,◯,◯,possible to prepare the injection preparations regardless of the amounts of peptides added,⊚ (20 mg/ml or more),"Peptide concentration at which injection preparation could be prepared, Example 3 (Na2CO3/Arg) ([3]; numeric): 15 mg/mL; Maximum amount of peptide added that gave an injection preparation ([3]; in 1 ml injection solvent containing sodium carbonate and arginine): 15 mg; Dissolution on successive addition (in words), Example 4 ([4]; 2 mg each in 1 ml arginine solvent, added after Peptide 1 and Peptide 2): white turbidity; Dissolution on successive addition, Example 4-2 (Arg) (2 mg each) ([4]; 2 mg each peptide added one after another to 1 ml arginine solvent): X; Peptide content in the vial, 0 months [8]: 103.7%; Peptide content in the vial, 1 month [8]: 103.4%; Peptide content in the vial, 3 months [8]: 102.7%; Peptide content in the vial, 6 months [8]: 100.1%"
RFVPDGNRI (T cell epitope) [Peptide 6],⊚ (20 mg/ml or more),10.55,◯,◯,◯,possible to prepare the injection preparations regardless of the amounts of peptides added,⊚ (20 mg/ml or more),–
RYCNLEGPPI (T cell epitope) [Peptide 5],⊚ (20 mg/ml or more),10.20,◯,◯,◯,possible to prepare the injection preparations regardless of the amounts of peptides added,⊚ (20 mg/ml or more),–
SYRNEIAYL (T cell epitope) [Peptide 7],⊚ (20 mg/ml or more),9.97,◯,◯,◯,not possible to prepare the injection preparations regardless of the amounts of peptides added,–,"Whether injection preparation could be prepared (in words) [1]: possible to prepare the injection preparations regardless of the amounts of peptides added; Peptide concentration at which injection preparation could be prepared, Example 1 (Na2CO3) [1]: ⊚ (20 mg/ml or more); pH of injection preparation, Example 1 (Na2CO3) [1]: 9.18; Whether injection preparation could be prepared (in words) [2]: possible to prepare the injection preparations regardless of the amounts of peptides added; Peptide concentration at which injection preparation could be prepared, Example 2 (Arg) [2]: ⊚ (20 mg/ml or more); pH of injection preparation, Example 2 (Arg) [2]: 9.68; Peptide concentration at which injection preparation could be prepared, Comparative Example 1 (injection solvent) ([7]; numeric): 0.5 mg/mL"
VYGIRLEHF (T cell epitope) [Peptide 9],⊚ (20 mg/ml or more),9.84,◯,◯,◯,possible to prepare the injection preparations regardless of the amounts of peptides added,⊚ (20 mg/ml or more),–

# — US20150359864A1, “PHARMACEUTICAL COMPOSITION CONTAINING PEPTIDES” (ONCOTHERAPY SCIENCE, INC., priority 2012, published 2015)
